Measurements from PMC10449828, “Fanconi anemia associated protein 20 (FAAP20) plays an essential role in homology-directed repair of DNA double-strand breaks”.

Key:
[1] = target: T1, FANCA;FAAP20 (human;human, UniProt O15360;Q6NZ36 1-1455;1-180, |); test: EMSA; fixed suboptimal FANCA, FAAP20 titrated; binding stimulated; EMSA: 125 mM Tris pH 7.5, 5 mM EDTA, 6% glycerol, 1 mM DTT, 100 mM NaCl, 1 nM substrate, RT 45 min; 4% native PAGE in 1x TAE; settings: protein: recombinant;recombinant; tags: none (native FANCA);C-terminal 6xHis; copies: 1;1; label: 32P 5' (T4 PNK); single strand
T1 sequence (O15360 whole entry, one chain of several): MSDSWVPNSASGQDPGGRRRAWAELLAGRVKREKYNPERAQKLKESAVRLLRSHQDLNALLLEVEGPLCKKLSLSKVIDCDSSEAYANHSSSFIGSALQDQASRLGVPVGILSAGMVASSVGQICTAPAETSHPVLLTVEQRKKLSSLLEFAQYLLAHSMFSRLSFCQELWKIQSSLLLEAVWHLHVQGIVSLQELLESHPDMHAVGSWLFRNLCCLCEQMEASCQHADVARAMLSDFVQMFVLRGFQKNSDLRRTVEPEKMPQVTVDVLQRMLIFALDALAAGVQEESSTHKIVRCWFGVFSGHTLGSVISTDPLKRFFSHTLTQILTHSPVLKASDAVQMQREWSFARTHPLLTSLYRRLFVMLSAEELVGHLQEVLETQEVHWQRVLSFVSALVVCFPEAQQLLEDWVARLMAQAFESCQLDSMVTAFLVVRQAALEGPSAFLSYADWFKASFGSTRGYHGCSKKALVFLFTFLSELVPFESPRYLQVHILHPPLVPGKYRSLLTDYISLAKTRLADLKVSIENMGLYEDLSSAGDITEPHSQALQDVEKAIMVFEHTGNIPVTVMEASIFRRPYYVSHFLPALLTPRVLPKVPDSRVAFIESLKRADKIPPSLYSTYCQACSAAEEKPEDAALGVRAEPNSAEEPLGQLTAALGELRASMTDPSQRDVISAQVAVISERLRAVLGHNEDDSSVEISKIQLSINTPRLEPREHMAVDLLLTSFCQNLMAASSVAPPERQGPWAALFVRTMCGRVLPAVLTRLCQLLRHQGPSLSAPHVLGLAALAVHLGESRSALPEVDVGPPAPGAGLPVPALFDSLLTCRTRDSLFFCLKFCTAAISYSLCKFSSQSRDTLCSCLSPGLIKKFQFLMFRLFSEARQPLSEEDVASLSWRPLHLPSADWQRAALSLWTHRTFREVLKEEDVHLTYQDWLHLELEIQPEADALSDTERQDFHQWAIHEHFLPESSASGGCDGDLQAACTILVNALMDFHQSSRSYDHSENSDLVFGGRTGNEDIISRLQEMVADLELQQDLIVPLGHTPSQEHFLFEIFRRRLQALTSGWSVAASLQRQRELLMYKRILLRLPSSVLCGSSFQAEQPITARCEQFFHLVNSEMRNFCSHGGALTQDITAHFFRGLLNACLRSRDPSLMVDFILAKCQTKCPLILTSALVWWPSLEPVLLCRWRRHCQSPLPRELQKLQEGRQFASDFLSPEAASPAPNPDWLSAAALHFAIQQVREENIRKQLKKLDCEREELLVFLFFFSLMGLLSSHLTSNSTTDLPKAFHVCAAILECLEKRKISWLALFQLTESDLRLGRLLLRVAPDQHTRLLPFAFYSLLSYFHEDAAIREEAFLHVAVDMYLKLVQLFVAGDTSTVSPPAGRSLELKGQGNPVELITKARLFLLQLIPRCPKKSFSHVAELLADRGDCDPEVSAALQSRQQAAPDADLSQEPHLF

[2] = target: T1, FANCA;FAAP20; test: EMSA; FANCA 10 nM, FAAP20 9-24 nM; binding stimulated; EMSA: 125 mM Tris pH 7.5, 5 mM EDTA, 6% glycerol, 1 mM DTT, 100 mM NaCl, 1 nM substrate, RT 45 min; 4% native PAGE in 1x TAE; settings: protein: recombinant;recombinant; tags: none (native FANCA);C-terminal 6xHis; copies: 1;1; label: 32P 5' (T4 PNK); fork, 25 bp duplex; unpaired 3' arm 30 nt (strand 1) and 5' arm 25 nt (strand 2); 1 nt 3' overhang on strand 2 as printed
[3] = target: T1, FANCA;FAAP20; test: EMSA; FANCA 10 nM, FAAP20 9-24 nM; FAAP20 increases FANCA affinity; EMSA: 125 mM Tris pH 7.5, 5 mM EDTA, 6% glycerol, 1 mM DTT, 100 mM NaCl, 1 nM substrate, RT 45 min; 4% native PAGE in 1x TAE; settings: protein: recombinant;recombinant; tags: none (native FANCA);C-terminal 6xHis; copies: 1;1; label: 32P 5' (T4 PNK); single strand
[4] = target: FANCA;FANCG (human;human, UniProt O15360;O15287 1-1455;1-622, |); test: EMSA; 10 nM each; higher affinity than FANCA alone; EMSA: 125 mM Tris pH 7.5, 5 mM EDTA, 6% glycerol, 1 mM DTT, 100 mM NaCl, 1 nM substrate, RT 45 min; 4% native PAGE in 1x TAE; settings: protein: recombinant;recombinant; tags: none (native FANCA);N-terminal 6xHis; copies: 1;1; label: 32P 5' (T4 PNK); single strand
Sequence of FANCA;FANCG (O15360 whole entry, chain 1 of 2): as the sequence (O15360 whole entry, one chain of several) above
Sequence of FANCA;FANCG (O15287 whole entry, chain 2 of 2): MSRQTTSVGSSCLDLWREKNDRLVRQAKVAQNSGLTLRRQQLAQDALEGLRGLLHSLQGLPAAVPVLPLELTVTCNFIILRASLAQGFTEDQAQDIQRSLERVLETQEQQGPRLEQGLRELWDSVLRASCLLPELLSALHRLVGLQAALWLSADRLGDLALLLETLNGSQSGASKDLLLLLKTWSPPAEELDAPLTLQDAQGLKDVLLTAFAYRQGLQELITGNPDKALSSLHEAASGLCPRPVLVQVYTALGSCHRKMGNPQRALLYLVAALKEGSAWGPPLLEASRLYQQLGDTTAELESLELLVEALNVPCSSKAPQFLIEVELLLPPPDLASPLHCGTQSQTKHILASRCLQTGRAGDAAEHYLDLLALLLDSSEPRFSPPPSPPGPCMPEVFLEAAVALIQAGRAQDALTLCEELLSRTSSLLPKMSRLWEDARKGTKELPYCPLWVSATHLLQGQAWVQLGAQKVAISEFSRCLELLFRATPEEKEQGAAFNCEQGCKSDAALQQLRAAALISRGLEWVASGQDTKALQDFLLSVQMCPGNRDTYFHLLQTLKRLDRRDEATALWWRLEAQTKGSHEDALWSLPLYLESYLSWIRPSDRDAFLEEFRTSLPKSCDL

[5] = target: FANCA;FAAP20;FANCG (human;human;human, UniProt O15360;Q6NZ36;O15287 1-1455;1-180;1-622, ||); test: EMSA; 10 nM each; slightly additive over FANCA+FANCG or FANCA+FAAP20; EMSA: 125 mM Tris pH 7.5, 5 mM EDTA, 6% glycerol, 1 mM DTT, 100 mM NaCl, 1 nM substrate, RT 45 min; 4% native PAGE in 1x TAE; settings: protein: recombinant;recombinant;recombinant; tags: none (native FANCA);C-terminal 6xHis;N-terminal 6xHis; label: 32P 5' (T4 PNK); single strand
Sequence of FANCA;FAAP20;FANCG (O15360 whole entry, chain 1 of 2): as the sequence (O15360 whole entry, one chain of several) above
Sequence of FANCA;FAAP20;FANCG (O15287 whole entry, chain 3 of 2): as the sequence (O15287 whole entry, chain 2 of 2) above

[6] = target: T2, FAAP20 (human, UniProt Q6NZ36 1-180); test: EMSA; FAAP20 9-24 nM; EMSA: 125 mM Tris pH 7.5, 5 mM EDTA, 6% glycerol, 1 mM DTT, 100 mM NaCl, 1 nM substrate, RT 45 min; 4% native PAGE in 1x TAE; settings: protein: recombinant; tags: C-terminal 6xHis; label: 32P 5' (T4 PNK); single strand
T2 sequence: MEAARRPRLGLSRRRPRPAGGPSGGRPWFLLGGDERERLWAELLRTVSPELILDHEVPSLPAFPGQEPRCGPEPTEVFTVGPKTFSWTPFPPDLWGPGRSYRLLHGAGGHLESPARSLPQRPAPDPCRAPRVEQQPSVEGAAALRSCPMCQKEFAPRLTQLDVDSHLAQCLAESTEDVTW

B1: EMSA ssRNA 61-mer (ssRNA)
RNA: GACGCUGCCGAAUUCUACCAGUGCCUUGCUAGGACAUCUUUGCCCACCUGCAGGUUCACCC
Q: Does B1 bind [1]?
A: binds

B2: splayed arm DNA (mixed)
DNA 1: GTCCTCCACCGCAGCCCACCTGCCCACCTTGTTGCTGATCTCAATCAGCTCTGGA
DNA 2: GCTGGCACGGTCGGATTTAAAGTTAGGGCAGGTGGGCTGCGGTGGAGGACG
Q: Does B2 bind [2]?
A: binds

B3: EMSA ssDNA 61-mer (ssDNA)
DNA: GACGCTGCCGAATTCTACCAGTGCCTTGCTAGGACATCTTTGCCCACCTGCAGGTTCACCC
Q: Does B3 bind [3]?
A: binds

Q: Does B3 bind [4]?
A: binds

Q: Does B3 bind [5]?
A: binds

Q: Does B3 bind [6]?
A: no binding
